What was measured:
[1] = biological target: T1, His-tagged monkey TROP2 protein (cynomolgus monkey; Rhesus …, UniProt A0A5F8AGB8 27-274); assay: SPR Biacore 8K, Ab on Protein A chip
T1 construct: also called cTROP2-His; ACRO Biosystems Cat# TR2-R52H3
T1 sequence: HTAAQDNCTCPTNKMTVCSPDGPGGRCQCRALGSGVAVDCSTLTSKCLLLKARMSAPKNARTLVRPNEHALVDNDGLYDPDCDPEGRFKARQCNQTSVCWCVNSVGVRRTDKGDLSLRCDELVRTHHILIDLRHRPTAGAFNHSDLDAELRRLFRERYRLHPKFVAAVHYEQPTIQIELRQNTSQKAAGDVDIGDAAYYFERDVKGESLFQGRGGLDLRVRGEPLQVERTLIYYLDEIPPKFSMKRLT

[2] = biological target: T2, His-tagged human PTK7 protein (human, UniProt Q13308 31-704); assay: SPR Biacore 8K, Ab on Protein A chip
T2 construct: Bought protein; also called hPTK7-His; not shown: His tag
T2 sequence: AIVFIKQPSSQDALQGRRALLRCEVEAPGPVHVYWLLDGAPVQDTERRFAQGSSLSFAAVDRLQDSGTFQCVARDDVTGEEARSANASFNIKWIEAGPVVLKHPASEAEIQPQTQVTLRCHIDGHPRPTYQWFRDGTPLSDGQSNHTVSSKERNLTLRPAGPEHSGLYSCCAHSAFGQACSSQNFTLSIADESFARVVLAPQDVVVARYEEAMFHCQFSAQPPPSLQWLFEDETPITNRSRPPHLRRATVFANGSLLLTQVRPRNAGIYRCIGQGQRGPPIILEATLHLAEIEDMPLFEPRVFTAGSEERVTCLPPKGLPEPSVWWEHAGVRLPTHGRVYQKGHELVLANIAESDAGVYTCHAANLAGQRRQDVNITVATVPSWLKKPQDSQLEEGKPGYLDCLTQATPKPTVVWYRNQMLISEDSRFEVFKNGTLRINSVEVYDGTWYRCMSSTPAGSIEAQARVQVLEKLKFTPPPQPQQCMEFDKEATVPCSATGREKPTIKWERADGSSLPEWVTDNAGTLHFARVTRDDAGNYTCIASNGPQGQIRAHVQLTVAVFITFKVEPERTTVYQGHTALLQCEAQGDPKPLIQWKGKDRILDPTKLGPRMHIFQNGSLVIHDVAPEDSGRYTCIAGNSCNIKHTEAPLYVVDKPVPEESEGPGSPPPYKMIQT
Procedure: (§1) The affinity of the anti-PTK7/TROP2 bispecific antibodies to His-tagged human TROP2 protein (hTROP2-His, ACRO Biosystems Inc., Cat #: TR2-H5223), His-tagged […] monkey TROP2 protein (cTROP2-His, ACRO Biosystems Inc., Cat #: Cat: TR2-R52H3), His-tagged dog TROP2 protein (dTROP2-His, ACRO Biosystems Inc., Cat #: TR2-C52H4), hPTK7-His, cPTK7-His and dPTK7-His were measured by surface plasmon resonance (SPR) using Biacore™ (Biacore, INC, Piscataway N.J.) 8K biosensor equipped with pre-immobilized Protein A sensor chips.

[3] = biological target: T3, His-tagged human TROP2 protein (human, UniProt P09758 27-274); assay: SPR Biacore 8K, Ab on Protein A chip
T3 construct: Bought protein; also called hTROP2-His; ACRO Biosystems Cat# TR2-H5223; not shown: His tag
T3 sequence (looked up): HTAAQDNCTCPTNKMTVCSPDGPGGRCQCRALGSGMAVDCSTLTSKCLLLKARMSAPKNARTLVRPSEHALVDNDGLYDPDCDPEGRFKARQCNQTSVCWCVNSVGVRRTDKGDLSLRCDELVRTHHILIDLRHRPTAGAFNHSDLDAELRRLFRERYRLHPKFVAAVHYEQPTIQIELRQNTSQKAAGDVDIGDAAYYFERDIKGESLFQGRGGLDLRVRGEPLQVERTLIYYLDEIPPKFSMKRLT
Procedure: as §1

[4] = biological target: T4, TROP2 on NCI-H1975 and NUGC-4 tumor cells (UniProt P09758 27-323, limits assumed); assay: flow cytometry on NCI-H1975 cells co-expressing PTK7 and TROP2; the single curve of the bispecific is not resolved between the two targets; anti-hIgG-Fc Alexa Fluor 647 secondary antibody, MFI [A]
T4 construct: whole, on cells; species of the lines is not worded there; also called TROP2 on cells
T4 sequence (looked up): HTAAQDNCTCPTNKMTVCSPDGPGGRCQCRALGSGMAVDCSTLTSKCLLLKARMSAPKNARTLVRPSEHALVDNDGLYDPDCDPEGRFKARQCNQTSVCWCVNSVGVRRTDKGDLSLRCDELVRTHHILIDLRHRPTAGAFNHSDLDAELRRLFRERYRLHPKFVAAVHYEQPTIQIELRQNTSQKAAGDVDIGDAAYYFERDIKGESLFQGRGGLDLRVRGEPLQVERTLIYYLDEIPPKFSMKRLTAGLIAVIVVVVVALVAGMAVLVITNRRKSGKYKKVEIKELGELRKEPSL
Procedure: This experiment was performed to test the binding activities of the anti-PTK7/TROP2 bispecific antibodies to different tumor cell lines. NCI-H1975 cells or NUGC-4 cells were transferred to a 96-well plate at a density of 5×10⁴ cells/well respectively. The sample antibody was added to the 96-well plate, and incubated at 4° C. for 30 min.

- Kd [1]: 3.16 nM
- koff [1]: 0.00104 s⁻¹
- kon [1]: 329000 M⁻¹ s⁻¹
- Kd [2]: 9.79 nM
- koff [2]: 0.00125 s⁻¹
- kon [2]: 128000 M⁻¹ s⁻¹
- Kd [3]: 3.03 nM
- koff [3]: 0.00107 s⁻¹
- kon [3]: 353000 M⁻¹ s⁻¹
- EC50 (read off the curve) [4]: ~0.7 µg/mL
B1: 3C4-18E9 (bispecific antibody, human IgG1, V domains shown)
VH 1: QVQLEQSRAEVKKPGESLRISCKGSGYSFTSYWISWVRQMPGKGLEWMGRIDPSDSYTNYNPSFQGHVTISADKSISTAYLQWSSLKASDTAMYYCARRDGSYFDFDYWGQGTLVTVSS
VH 2: QLQLQQSGPGLLKPSETLSLTCTVSGGSISSSYYFWGWIRQPPGKGLEWIGAIYYIGNTHYNPSLKSRVTISIDTSKNQFSLNLNSVTAADTAIYYCARYEDTWNWFDPWGQGTLVTVSS
VL: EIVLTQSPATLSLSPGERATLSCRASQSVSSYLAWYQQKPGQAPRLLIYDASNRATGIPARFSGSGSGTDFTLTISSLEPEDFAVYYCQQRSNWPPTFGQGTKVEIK
notes: which arm carries the knob is stated only for 3C4-6F7; also called anti-PTK7/TROP2 bispecific antibody 3C4-18E9

From patent publication US20260250421A1 (BIOCYTOGEN PHARMACEUTICALS BEIJING, published 2026)
